{"source": "paper PMC12383448", "key": {"His12": {"target": "His12 (UniProt position 197, CHQQIHRNAPI)", "assay": "NMR"}, "His8": {"target": "His8 (UniProt position 193, ACLSCHQQIHR)", "assay": "NMR"}, "[1]": {"conditions": "10 °C, not stated for the titration sample (the pH 6.0 zinc-binding NMR samples had no other added buffers or salts), not stated (no added buffer reported for the NMR samples), folded, Zn2+-bound (0.9 mM ZL with equimolar ZnCl2)"}}, "data": [{"substance": "ZC4H2 zinc finger peptide ZL (ZC4H2-ZL) (Homo sapiens)", "values": [{"measurement": "pKa", "setting": "His12; [1]", "result": "5.5 ± 0.1"}, {"measurement": "pKa", "setting": "His12; unfolded, zinc-free ZL peptide", "result": "near 6.0"}, {"measurement": "pKa", "setting": "His8; [1]", "result": "6.9 ± 0.1"}, {"measurement": "pKa", "setting": "His8; unfolded, zinc-free ZL peptide", "result": "near 6.0"}]}]}
